We go through 7 molecules from patent US20240261333A1, “NOVEL TARGETS FOR ENHANCING ANTI-TUMOR IMMUNITY” (THE BROAD INSTITUTE, INC., priority 2021, published 2024).

In the assay the target is T1, B3GNT2 (Homo sapiens, UniProt Q9NY97).
T1 construct: The respective ORFs of candidate genes [CD274 (NM_014143), MCL1 (NM_021960), JUNB (NM_002229), and B3GNT2 (NM_006577)] were synthesized; expressed in transfected cells; host or cells: A375 melanoma cells (lentiviral ORF overexpression)
T1 sequence (Q9NY97 1-397): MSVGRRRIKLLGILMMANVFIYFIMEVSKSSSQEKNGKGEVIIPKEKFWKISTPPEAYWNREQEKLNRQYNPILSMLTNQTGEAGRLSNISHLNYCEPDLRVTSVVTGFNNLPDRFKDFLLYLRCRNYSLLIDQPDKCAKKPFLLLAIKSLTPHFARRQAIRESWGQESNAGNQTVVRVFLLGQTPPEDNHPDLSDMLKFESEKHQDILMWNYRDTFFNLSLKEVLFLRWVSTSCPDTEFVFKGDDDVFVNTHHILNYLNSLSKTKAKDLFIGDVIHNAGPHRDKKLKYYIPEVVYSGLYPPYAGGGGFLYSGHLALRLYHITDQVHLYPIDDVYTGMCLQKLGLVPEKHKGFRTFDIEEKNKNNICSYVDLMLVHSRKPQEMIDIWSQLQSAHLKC
Kind of assay: Co-IP of FLAG-tagged B3GNT2 followed by mass spectrometry. Set-up: C-term IgG / C-term flag: unit not given here. The assay is classed as cell-based. The settings on record: Co-IP followed by mass spectrometry of B3GNT2; for C-term flag / C-term IgG: C-term tag; for C-term flag / N-term FLAG: FLAG pull-down; for C-term IgG / N-term IgG: IgG pull-down; for N-term FLAG / N-term IgG: N-term tag. As to the method: Cells were plated in 10-cm cell culture dishes and grown to 60-80% confluency. For each condition, two biological replicates were harvested for co-IP. Cells were washed with PBS and 4 mL of lysis buffer (20 mM HEPES, 1% Triton X-100, 150 mM NaCl, 1 mM EDTA, and 10% glycerol) containing protease inhibitor cocktail was added. Cells were scraped and lysate was incubated at 4° C. under rotary agitation for 1 h. Lysate was centrifuged at 14,000×g for 10 min at 4° C. Supernatant was transferred to a new tube and an aliquot was taken as the input. […] For Western blots, 10 μg/mL Chicken Anti-FLAG (Aves labs ET-DY100) and IgY control (R&D Systems AB-101-C) antibodies were biotinylated (Thermo Fisher Scientific 90407) and added to the respective conditions. Lysates with antibodies were incubated at 4° C. under rotary agitation overnight. For each mL of lysate, 50 μL of Pierce Protein A/G Magnetic Beads (Mass spectrometry; Thermo Fisher Scientific 88803) or Pierce Streptavidin Magnetic Beads (Western blot; Thermo Fisher Scientific 88817) was washed twice with lysis buffer. Lysates with antibodies were added to the beads and incubated at 4° C. under rotary agitation for 4 h. Beads were washed with lysis buffer 3 times and resuspended in lysis buffer for storage. […] This solution was subjected to solid phase extraction to concentrate the peptides and remove unwanted reagents followed by injection onto a Shimadzu HPLC with fraction collector. Eight fractions were collected and after concentration were injected on a Waters NanoAcquity HPLC equipped with a self-packed Aeris 3 μm C18 analytical column 0.075 mm by 20 cm, (Phenomenex). Peptides were eluted using standard reverse-phase gradients. The effluent from the column was analyzed using a Thermo Orbitrap Elite mass spectrometer (nanospray configuration) operated in a data dependent manner for 54 minutes. […] Scaffold Q+S (Proteome Software) was used to provide consensus reports for the identified proteins.

B1: MTCH2 (protein, UniProt Q9Y6C9 2-303, looked up)
Mitochondrial carrier homolog …: ADAASQVLLGSGLTILSQPLMYVKVLIQVGYEPLPPTIGRNIFGRQVCQLPGLFSYAQHIASIDGRRGLFTGLTPRLCSGVLGTVVHGKVLQHYQESDKGEELGPGNVQKEVSSSFDHVIKETTREMIARSAATLITHPFHVITLRSMVQFIGRESKYCGLCDSIITIYREEGILGFFAGLVPRLLGDILSLWLCNSLAYLVNTYALDSGVSTMNEMKSYSQAVTGFFASMLTYPFVLVSNLMAVNNCGLAGGCPPYSPIYTSWIDCWCMLQKEGNMSRGNSLFFRKVPFGKTYCCDLKMLI
For B1, the C-term flag amounted to 2, the “C-term IgG” value worked out at 0, the “N-term FLAG” value worked out at 4 and the “N-term IgG” value was determined as 0.

B2: ARG1 (protein)
chain: MSAKSRTIGIIGAPFSKGQPRGGVEEGPTVLRKAGLLEKLKEQECDVKDYGDLPFADIPNDSPFQIVKNPRSVGKASEQLAGKVAEVKKNGRISLVLGGDHSLAIGSISGHARVHPDLGVIWVDAHTDINTPLTTTSGNLHGQPVSFLLKELKGKIPDVPGFSWVTPCISAKDIVYIGLRDVDPGEHYILKTLGIKYFSMTEVDRLGIGKVMEETLSYLLGRKKRPIHLSFDVDGLDPSFTPATGTPVVGGLTYREGLYITEEIYKTGLLSGLDIMEVNPSLGKTPEEVTRTVNTAVAITLACFGLAREGNHKPIDYLNPPK
For B2, the C-term flag is reported as 6, the “C-term IgG” value is 4, the “N-term FLAG” value is reported as 8 and the “N-term IgG” value is given as 4.

B3: NCCRP1 (protein)
chain: MEEVREGHALGGGMEADGPASLQELPPSPRSPSPPPSPPPLPSPPSLPSPAAPEAPELPEPAQPSEAHARQLLLEEWGPLSGGLELPQRLTWKLLLLRRPLYRNLLRSPNPEGINIYEPAPPTGPTQRPLETLGNFRGWYIRTEKLQQNQSWTVKQQCVDLLAEGLWEELLDDEQPAITVMDWFEDSRLDACVYELHVWLLAADRRTVIAQHHVAPRTSGRGPPGRWVQVSHVFRHYGPGVRFIHFLHKAKNRMEPGGLRRTRVTDSSVSVQLRE
Regarding B3, the C-term flag worked out at 4, the “C-term IgG” value amounted to 0, the “N-term FLAG” value is given as 4 and the “N-term IgG” value worked out at 4.

B4: TMEM59 (protein)
chain: EAFDSVLGDTASCHRACQLTYPLHTYPKEEELYACQRGCRLFSICQFVDDGIDLNRTKLECESACTEAYSQSDEQYACHLGCQNQLPFAELRQEQLMSLMPKMHLLFPLTLVRSFWSDMMDSAQSFITSSWTFYLQADDGKIVIFQSKPEIQYAPHLEQEPTNLRESSLSKMSYLQMRNSQAHRNFLEDGESDGFLRCLSLNSGWILTTTLVLSVMVLLWICCATVATAVEQYVPSEKLSIYGDLEFMNEQKLNRYPASSLVVVRSKTEDHEEAGPLPTKVNLAHSEI
B4: the C-term flag is on record as 0, the “C-term IgG” value came to 0, the “N-term FLAG” value was found to be 6 and the “N-term IgG” value stood at 0.

B5: DDX20 (protein)
chain: MAAAFEASGALAAVATAMPAEHVAVQVPAPEPTPGPVRILRTAQDLSSPRTRTGDVLLAEPADFESLLLSRPVLEGLRAAGFERPSPVQLKAIPLGRCGLDLIVQAKSGTGKTCVFSTIALDSLVLENLSTQILILAPTREIAVQIHSVITAIGIKMEGLECHVFIGGTPLSQDKTRLKKCHIAVGSPGRIKQLIELDYLNPGSIRLFILDEADKLLEEGSFQEQINWIYSSLPASKQMLAVSATYPEFLANALTKYMRDPTFVRLNSSDPSLIGLKQYYKVVNSYPLAHKVFEEKTQHLQELFSRIPFNQALVFSNLHSRAQHLADILSSKGFPAECISGNMNQNQRLDAMAKLKHFHCRVLISTDLTSRGIDAEKVNLVVNLDVPLDWETYMHRIGRAGRFGTLGLTVTYCCRGEEENMMMRIAQKCNINLLPLPDPIPSGLMEECVDWDVEVKAAVHTYGIASVPNQPLKKQIQKIERTLQIQKAHGDHMASSRNNSVSGLSVKSKNNTKQKLPVKSHSECGIIEKATSPKELGCDRQSEEQMKNSVQTPVENSTNSQHQVKEALPVSLPQIPCLSSFKIHQPYTLTFAELVEDYEHYIKEGLEKPVEIIRHYTGPGDQTVNPQNGFVRNKVIEQRVPVLASSSQSGDSESDSDSYSSRTSSQSKGNKSYLEGSSDNQLKDSESTPVDDRISLEQPPNGSDTPNPEKYQESPGIQMKTRLKEGASQRAKQSRRNLPRRSSFRLQTEAQEDDWYDCHREIRLSFSDTYQDYEEYWRAYYRAWQEYYAAASHSYYWNAQRHPSWMAAYHMNTIYLQEMMHSNQ
As to B5, the C-term flag turned out to be 6, the “C-term IgG” value came out at 0, the “N-term FLAG” value came to 0 and the “N-term IgG” value came to 0.

B6: LIMA1 (protein)
chain: MESSPFNRRQWTSLSLRVTAKELSLVNKNKSSAIVEIFSKYQKAAEETNMEKKRSNTENLSQHFRKGTLTVLKKKWENPGLGAESHTDSLRNSSTEIRHRADHPPAEVTSHAASGAKADQEEQIHPRSRLRSPPEALVQGRYPHIKDGEDLKDHSTESKKMENCLGESRHEVEKSEISENTDASGKIEKYNVPLNRLKMMFEKGEPTQTKILRAQSRSASGRKISENSYSLDDLEIGPGQLSSSTFDSEKNESRRNLELPRLSETSIKDRMAKYQAAVSKQSSSTNYTNELKASGGEIKIHKMEQKENVPPGPEVCITHQEGEKISANENSLAVRSTPAEDDSPGDSQVKSEVQQPVHPKPLSPDSRASSLSESSPPKAMKKFQAPARETCVECQKTVYPMERLLANQQVFHISCFRCSYCNNKLSLGTYASLHGRIYCKPHFNQLFKSKGNYDEGFGHRPHKDLWASKNENEEILERPAQLANARETPHSPGVEDAPIAKVGVLAASMEAKASSQQEKEDKPAETKKLRIAWPPPTELGSSGSALEEGIKMSKPKWPPEDEISKPEVPEDVDLDLKKLRRSSSLKERSRPFTVAASFQSTSVKSPKTVSPPIRKGWSMSEQSEESVGGRVAERKQVENAKASKKNGNVGKTTWQNKESKGETGKRSKEGHSLEMENENLVENGADSDEDDNSFLKQQSPQEPKSLNWSSFVDNTFAEEFTTQNQKSQDVELWEGEVVKELSVEEQIKRNRYYDEDEDEE
With B6, the C-term flag is 2, the “C-term IgG” value is 0, the “N-term FLAG” value is recorded as 4 and the “N-term IgG” value is given as 3.

B7: MTDH (protein, UniProt Q86UE4 1-582, looked up)
Protein LYRIC: MAARSWQDELAQQAEEGSARLREMLSVGLGFLRTELGLDLGLEPKRYPGWVILVGTGALGLLLLFLLGYGWAAACAGARKKRRSPPRKREEAAAVPAAAPDDLALLKNLRSEEQKKKNRKKLSEKPKPNGRTVEVAEGEAVRTPQSVTAKQPPEIDKKNEKSKKNKKKSKSDAKAVQNSSRHDGKEVDEGAWETKISHREKRQQRKRDKVLTDSGSLDSTIPGIENTITVTTEQLTTASFPVGSKKNKGDSHLNVQVSNFKSGKGDSTLQVSSGLNENLTVNGGGWNEKSVKLSSQISAGEEKWNSVSPASAGKRKTEPSAWSQDTGDANTNGKDWGRSWSDRSIFSGIGSTAEPVSQSTTSDYQWDVSRNQPYIDDEWSGLNGLSSADPNSDWNAPAEEWGNWVDEERASLLKSQEPIPDDQKVSDDDKEKGEGALPTGKSKKKKKKKKKQGEDNSTAQDTEELEKEIREDLPVNTSKTRPKQEKAFSLKTISTSDPAEVLVKNSQPIKTLPPATSTEPSVILSKSDSDKSSSQVPPILQETDKSKSNTKQNSVPPSQTKSETSWESPKQIKKKKKARRET
As to B7, the C-term flag is on record as 6, the “C-term IgG” value was found to be 0, the “N-term FLAG” value was 0 and the “N-term IgG” value came out at 0.
